test: yeast display, Sf9 membrane polyspecificity reagent, FACS + sequencing; frameworks hold sequencing errors
Outline: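 Genes from sorted yeast were amplified by colony PCR, read by MiSeq 2 × 250 sequencing and filtered on CDR length. These cells carried a synthetic nanobody library in Saccharomyces cerevisiae BJ5465 and were sorted by FACS into low and high (top ~1%) gates on anti-HA and streptavidin fluorescence. Polyreactivity is labelled according to the gate of origin.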

| Sequence | polyreactivity (PSR sort gate) |
| --- | --- |
| QVQLVESGGGLVQAGGSLRLSCAASGFTFYGYAMGWYRQAPGKERELVAAISSSGGRTYYADSVKGRFTISRDNAKNTVYLQMNSLKPEDTAVYYCAGDYTSRDYYYWGQGTQVTVSS | high polyreactivity |
| QVQLVESGGGLVQAGGSLRLSCAASGFTFYGYAMGWYRQAPGKERELVAAISTRGSRTYYADSVKGRFTISRDNSKNTVYLQMNSLKPEDTAVYYCAARKKHSGYGRGNYWGQGTQVTVSS | high polyreactivity |
| QVQLVESGGGLVQAGGSLRLSCAASGFTFYGYAMGWYRQAPGKERELVAGITSSGGSTHYADSVKGRFTISRDNAKNTVYLQMNSLKPEDTAVYYCAKVWSFPSNYRAYYYWGQGTQVTVSS | high polyreactivity |
| QVQLVESGGGLVQAGGSLRLSCAASGFTFYGYAMGWYRQAPGKERELVATIRRSTGSTYYADSVKGRFTISRDNAKNTVYLQMNSLKPEDTAVYYCATRVWFPITSYDYWGQGTQVTVSS | low polyreactivity |
| QVQLVESGGGLVQAGGSLRLSCAASGFTFYGYTMGWYRQAPGKEREVVAAITSDGDTNYADSVKGRFTISRDNAKNNVYLQMNSLIPEDTAVYYCNADPGFFFYWWTGDYWGQGTQVTVSS | low polyreactivity |
| QVQLVESGGGLVQAGGSLRLSCAASGFTFYHYAMGWYRQAPGKERELVAAISRSGGSTYYADSVKGRFTISRDNAKNTVYLQMNSLKPEDTAVYYCSKVLRAKNSFDYWGQGTQVTVSS | high polyreactivity |
| QVQLVESGGGLVQAGGSLRLSCAASGFTFYINAMGWYRQAPGKEREFVAAITSRGGSTYYADSVKGRFTISRDNAKNTVYLQMNSLKPEDTAVYYCAARNFLSRRGTYDYWGQGTQVTVSS | high polyreactivity |
| QVQLVESGGGLVQAGGSLRLSCAASGFTFYINVMGWYRQATGKERELVAAITSSGTTNYADSVKGRFTISRDNAKNTVYLQMNSLKPEDTAVYYCAKRSYGGTLHYAFDSWGQGTQVTVSS | low polyreactivity |
| QVQLVESGGGLVQAGGSLRLSCAASGFTFYIYAMGWDRQAPGKERELVAAIRASGGSTYYADSVKGRFTISRDSAKNTVYFLMNSLNPDDTAVYYCAADYKVYASWYYAYTFYYWGQGTQVTVSS | low polyreactivity |
| QVQLVESGGGLVQAGGSLRLSCAASGFTFYIYAMGWSRQAPGKERELVAAISSSGGSTYYADSVKGRFTISRDNAKNTVYLQMNSLNPEDTAVYYWNVVRYPVYRTRYYYWGQGTQVTVSS | high polyreactivity |
| QVQLVESGGGLVQAGGSLRLSCAASGFTFYKNAMGWYRQAPGKERELVASISSGGSTKYADSVKGRFTISRDNAKNTVYLQMNSLKPEDTAVYYCAADSGRNRMYYWGQGTQVTVSS | high polyreactivity |
| QVQLVESGGGLVQAGGSLRLSCAASGFTFYKNTMGWYRQAPGKERELVAAISGSGGRTYYADSVKGRFTISRDNAKNTVYLQMTSLKPEDTAVYYCNAAARYRWQYVYSLYEYGHWGQGTQVTVSS | high polyreactivity |
| QVQLVESGGGLVQAGGSLRLSCAASGFTFYKYAIGWYRQAPGKERELVAGIRRGGTNYADSVKGRFTISRDNAKNTVFLQMNSLKPEDTAVYYCAADVRPYYSAYRGRYYYWGQGTQVTVSS | high polyreactivity |
| QVQLVESGGGLVQAGGSLRLSCAASGFTFYLNAMGWYRQAPGKERELVAAISYSDGSPYYADSVKGRFTISRDNAKNTVYLQRNSLKPEDTAVYYCAADTTDPGGAYQLMDYWRQGTQVTVSS | low polyreactivity |
| QVQLVESGGGLVQAGGSLRLSCAASGFTFYLYAMGWYRQAPGKERELVAAISSGGSTNYADSVKGRFTISRDNAKNTVYLQMNSLKPEDTAVYYCNKRYRRATWWITAYDHWGQGTQVTVSS | high polyreactivity |
| QVQLVESGGGLVQAGGSLRLSCAASGFTFYLYTMAWYRQAPGKERELVATITSDGGTNYADSVKGRFTISRDNAKNTVYLQMNSLKPEDTAVYYCARTARRRYQPYEYWGQGTQVTVSS | low polyreactivity |
| QVQLVESGGGLVQAGGSLRLSCAASGFTFYLYTMGWYRQAPGKERELVASLTGSGGSTYYADSVKGRFTISRDNAKNTVYLQMHSLKPEDTAVYYCNARYYVYSATVDRYYHFYYWGQGTQVTVSS | high polyreactivity |
| QVQLVESGGGLVQAGGSLRLSCAASGFTFYNYAMGWYRQAPGKERELVAAITSRGGSTYYADSVKGRFTISRDYAKNTVYLQMNSLKPEDTAVYYCNAVAKLYYWRYDYWGQGTQVTVSS | low polyreactivity |
| QVQLVESGGGLVQAGGSLRLSCAASGFTFYNYAMGWYRQAPGKERELVAVISRSGGRTKYADSVKGRFTISRDNAKNTVYLQMNSLKPEDTAVYYCAARPSPGYYAYRYAPAIHYDYWGQGTQVTVSS | high polyreactivity |
| QVQLVESGGGLVQAGGSLRLSCAASGFTFYPNAMGWYRQAPGKEWELVAAISRSGSSTYYADSVKGRFTISRDNAKNTVYLQMNSVKPEDTAVYDCNRYGRQYDFYYWGQGTQVTVSS | high polyreactivity |
| QVQLVESGGGLVQAGGSLRLSCAASGFTFYPYAMGWYRQAPGKERELVAIRSDGSTYYADSVKGRFTISRDNAKNTVYLQMNCLKPEDTAVYYCNTEPSRDSYSLYFQTRGDYWGQGTQVTVSS | low polyreactivity |

| Sequence | polyreactivity (PSR sort gate) |
| --- | --- |
| QVQLVESGGGLVQAGGSLRLSCAASGFTFYPYSMGWYRQAPGKERELVAAITRGGSTYYADSVKGRFTISRDNAKNTVFLQMNSLKPEDTAVYYCNAYWQGYGYYYWGQGTQVTVSS | low polyreactivity |
| QVQLVESGGGLVQAGGSLRLSCAASGFTFYPYTMGWYRQAPGKEREFVAAISWNCGSTYYADSVKGRFTISCDNAKNTVYLQMNSLKPEDTAVYYCAKRSYRSSARELDYWGQGTQVTVSS | low polyreactivity |
| QVQLVESGGGLVQAGGSLRLSCAASGFTFYQYGMGWYRQAPGKERELVATITSGGRTNYADSVKGRFTISRDNAKNTVYLQMNSLKPEDTAVYYCNKLPYYPRFGRIGRYYYWGQGTQVTVSS | high polyreactivity |
| QVQLVESGGGLVQAGGSLRLSCAASGFTFYRNAMGWYRQAPGKERELVAAITLSGTSTYYADSVMGRFTISRDNAKNTVYLQMISLIPEDTAVYYWNTVGYRGPSNSRFYYWGQGTQVTLSS | high polyreactivity |
| QVQLVESGGGLVQAGGSLRLSCAASGFTFYRNAMGWYRQAPGKEREMVAAITWSGTSTYYADSVKGRFTISRDNAKNTVYFQMNSLKPEDTAVYFCNTVGYRGRSNSRFYYWGQGTQVTVSS | high polyreactivity |
| QVQLVESGGGLVQAGGSLRLSCAASGFTFYRNAMGWYRQAPWKERELVATITRSGGSKYYADSVKGRFTISRDNAKNTVYLQMNSLKPEDTEVYYCNDAISGVLVHGNYWGQGTQVTVSS | low polyreactivity |
| QVQLVESGGGLVQAGGSLRLSCAASGFTFYRNAMRWYRQAPGKERELVAAISRGGRTYYADSVKGRFTISRDNAKNTVYLQMNSLKPEDTAVYYCARKYTRKIPASDYWGQGTQVTVSS | high polyreactivity |
| QVQLVESGGGLVQAGGSLRLSCAASGFTFYRNDMGWYRQAPGKEREFVAAITTSGGSTYYADSVKGRFTISRDNAKYTVYLQMNSLKPEDTAVYYCNAYGDGYWKTFGYWGQGTQVTVSS | high polyreactivity |
| QVQLVESGGGLVQAGGSLRLSCAASGFTFYRYAMGSYRQAPGKERELFAAIRKSGGSTYYADSVKGRFTISRDNAKNTVYLLMNSMKAEDTAVYYCAKRYATDGFGYWGQGTQVTVSS | high polyreactivity |
| QVQLVESGGGLVQAGGSLRLSCAASGFTFYRYAMGWYRPAPGKERELVAAISSTGDRTYYADSVKGRFTISRDNAKNTVYLQMNSLKPEDTAVYYCAAPYQNQVEFNYWGQGTQVTVSS | high polyreactivity |
| QVQLVESGGGLVQAGGSLRLSCAASGFTFYRYAMGWYRPAPGKERELVAAITRSGSRTYYADSVKGRFTISRDNAKNTVYLQMNSLKPEDTAVYYCNTDGGDHPTARYGYWGQGTQVTVSS | high polyreactivity |
| QVQLVESGGGLVQAGGSLRLSCAASGFTFYRYAMGWYRQAPGKERELVAAISRTGGSTYYADSVKGRFTISRDNAKNTVYLQMNSLKPEDTAVYYCAAERKARTSWYGAASRYYYWGQGTQVTVSS | high polyreactivity |
| QVQLVESGGGLVQAGGSLRLSCAASGFTFYRYTMGWYRQAPGKERELVAAITNTDSTNYADSVKGRFTISRDNAKNTVYLQMNSLKPEDTAVYYCNAAYVWYRIFVRRDYWGQGTQVTVSS | high polyreactivity |
| QVQLVESGGGLVQAGGSLRLSCAASGFTFYSNAMGWYRQAPGKERELGAAITWSTGNTYYADSVKGRFTISRDNAKNTVYLQMNSLKPEDTAVYYCAARSHTGYYPPSYYWGQATQVTVSS | high polyreactivity |
| QVQLVESGGGLVQAGGSLRLSCAASGFTFYTNAMGLSRQAPGKERELVAAISQRGASTYYADSVKGRFTISRDNAKNTFYLEMTSLKPEDTAVYYCAASSRTHGSYYYWGQGTQVTVSS | high polyreactivity |
| QVQLVESGGGLVQAGGSLRLSCAASGFTFYTNAMGWYRQAPGKEREFVAAISWSGTGTYYADSVKGRFTISRDNAKNTVYLQMNSLKPEDTAVYYCAARDRWRGGRKFDYWGQGTQVTVSS | high polyreactivity |
| QVQLVESGGGLVQAGGSLRLSCAASGFTFYTYAMGWYRQAPGKERELVAAINQRGGRTYYADSVKGRFTISRDNAKNTVYLQMNSLKPEDTAVYYCAKSPPPKTRYDYWGQGTQVTVSS | high polyreactivity |
| QVQLVESGGGLVQAGGSLRLSCAASGFTFYTYVRGWYRQAPGKERELVAAITSGVSTNYADSVKGRFTISRDNAKNTVYLQMNSLKPEDTAVYYCNKDVRPAYRWYDYWGQDTQVTVSS | low polyreactivity |
| QVQLVESGGGLVQAGGSLRLSCAASGFTFYWYAMGWYRKAPGKERELVAAISSSGGRTYYADSVKGRFTISRDNAKNTVYLQMNSLKPEDTAVYYCAAAHTREYYWGQGTQVTVSS | high polyreactivity |
| QVQLVESGGGLVQAGGSLRLSCAASGFTFYWYAMGWYRQAPGKERELVAAITIGGSTYYADSVKGRFTISRDNAKNTVYLQMNSLKPEDTAVYYCNVYGYGTEYDYWGQGTQVTVSS | high polyreactivity |
